Source: US12252714B2, “Halogenation of complex organic compounds” (REGENTS OF THE UNIVERSITY OF MICHIGAN, priority 2018, dated 2025)
Residue numbers refer to the chain shown, from its start. Numbers in names are those of the source. Unless stated, no cut-off for active and inactive is given here. Read-outs that look alike come from different tables or passages of the source.

B1: Rdc2: eukaryotic FDH Rdc2, literature comparison (protein, UniProt B3FWT7 22-519, looked up)
Flavin-dependent halogenase …: AAALAREGNDVVLLEADQHPRYHIGESMLPSLRPLLRFIDLEDKFDAHGFQKKLGAAFKLTSKREGSHGPRGYSWNVVRSESDEILFNHARESGAQAFQGIKINAIEFEPYEEEYPNGEKVANPGKPTSAKWSSKDGSSGDIAFKYLVDATGRIGIMSTKYLKNRHYNEGLKNLAIWGYYKNNIPWAQGTPRENQPFFEGMRDGAGWCWTIPLHNGTVSVGAVMRKDLFFEKKKSLGENATNTQIMAECMKLCPTIGELLAPAELVSDIKQATDYSYSATAYAGPNFRIVGDAGCFIDPFFSSGHHLAVAGALAAAVSINASIKGDCTEYEASRWHAKKVDEGYTLFLLVVMAALKQIRMQENPVLSDVDEDGFDRAFQFLRPEAVKKFTKEDVAQTIDFAVHALNNMAELDMDIPEHMINGDKEGENGVTNGNNGAAKTAGLASNMEKLTNDEEKVLNGLRILGKAAPGGTLADFEGTAIDGLMPRLEHGKLGLNKV
B2: MalA H253F: MalA halogenase variant, His253 substituted with phenylalanine (protein, UniProt L0E155 1-667, looked up, variant H253F)
Flavin-dependent halogenase …: MAPTPKYTFTERAAAGNLSDAEILNSNNPTGSELPDESDVVVGGAGIHGLIYALHASKYKPNNLKISVIEKNTRPGYKIGESTLPIFYTWCKLHGISAAYLLRLFGLKDGLCFYFLDRENQGQYTDFCSVGAPGLVLASLQIERPMSELLFTILAQRNGVNVYHGREVDFKSTVVQGGGQGNKIAVSRGKYDSTPKTIDSALFVDATGRFRQFCSKKAPRHRFDGWNCNAFWGYFTAPKDESKIPFDLYEGDFTNHLCFPEGWVWVIRLPSWEGSLIANLMDMVTYILECADAGVPGDELPSSEELARMFGLKFQWVTSIGFAVRNDVKYPEDLSAYGTREAEQKFNYFVQKYELLQQFMSNFELIENLYGPGTTWFIRKTLAYQSPVVSGPGWLAIGDACGFTNPLYSPGINVGMSTSTWAAQLSHRIVEIGKSAPADAAESSIRKLLVPYDDYCKSLVPALEQMNRFNYVCYRDTRLGPQVACLWQFFAGIERYLSDVNIETFAHYAIKWVWGAMVPEYQQVAQKCIEHIETVPLDERLPDAMVDELLAFSNRIKSAAVAADDFSLRWDAILRSFDRSLNFVEGKTSRDIYTRQCSGCGAWLQLRPDWKKCHSCGLLGTEPQTAVTFDPPLTAEEEALLYAAWNTAPKYDPSKELKLPTPTRPAA
B3: D109A: MalA halogenase D109A mutant (protein, listed as Malbranchea aurantiaca)
chain: B2 Flavin-dependent halogenase … with D109A, F253H
modifications: Wild-type MalA protein
notes: MalA halogenase D109A mutant
B4: MalA G131S: C9-selective MalA halogenase mutant (protein, UniProt L0E155 1-667, looked up, variant G131S)
Flavin-dependent halogenase …: B2 Flavin-dependent halogenase … with G131S, F253H
B5: S129A/I493S: C9-selective MalA halogenase double mutant (protein, listed as Malbranchea aurantiaca)
chain: B2 Flavin-dependent halogenase … with S129A, F253H, I493S
modifications: MalA (S129A/I493S) protein
B6: MalA S129 Å/P85S: C8-selective MalA halogenase double mutant (protein, UniProt L0E155 1-667, looked up, variant S129A P85S)
Flavin-dependent halogenase …: B2 Flavin-dependent halogenase … with P85S, S129A, F253H
B7: MalA K108A: MalA halogenase mutant of the catalytic lysine Lys108 (protein, UniProt L0E155 1-667, looked up, variant K108A)
Flavin-dependent halogenase …: B2 Flavin-dependent halogenase … with K108A, F253H
B8: MalA F489H: MalA halogenase variant, Phe489 substituted with histidine (protein, UniProt L0E155 1-667, looked up, variant F489H)
Flavin-dependent halogenase …: B2 Flavin-dependent halogenase … with F253H, F489H

How the values were obtained:
[1] = cited from earlier work
[2] = MalA biochemical activity assays, mutants versus wild-type MalA; details: for site-selectivity of chlorination: chlorination of compound 2, C8 versus C9; for halogenase activity relative to wild-type MalA: chlorination of compound 2
Experimental: Biochemical activity assays were performed in a 100 μL volume with the following components: 18 μM MalA, 54 μM HpaC flavin reductase,^3 100 μM FAD, 50 mM NaCl, 250 μM substrate, 5 mM NADH, and brought to total volume with reaction buffer (same as storage bufferNaBr). The chlorination reactions proceeded for 20 minutes and the bromination reactions proceeded overnight. The reactions were extracted with ethyl acetate ([…], in triplicate) and dried down under nitrogen gas. The dried extract was resuspended in LC/MS grade methanol to a concentration of around 10 μM for LC/MS analysis. High resolution mass spectrometry was performed using electrospray ionization on an Agilent quadrupole time-of-flight spectrometer (Q-TOF 6500 series). Biochemical activity was monitored via the following HPLC method using acetonitrile and water: 65% acetonitrile for 5 minutes, gradient over 10 minutes to 95% acetonitrile, 95% acetonitrile for 5 minutes, gradient over 2 minutes to 65% acetonitrile, 65% acetonitrile for 11 minutes to re-equilibrate with a flow rate of 0.3 mL/minute, monitoring at 240 nm on a Phenomenex Lux cellulose-3, cellulose Tris (4-methylbenzoate) 250×4.6 mm column.

| Molecule | site-selectivity of chlorination [2] | halogenase activity relative to wild-type MalA [2] | also measured |
| --- | --- | --- | --- |
| B1 | – | – | catalytic efficiency ([1]; initial chlorination reaction): 2.93 min⁻¹ mM⁻¹; catalytic efficiency ([1]; second chlorination reaction): 0.11 min⁻¹ mM⁻¹ |
| B2 | selectivity for producing the C8-chlorinated compound 4 | – | site-selectivity profile of bromination ([2]; bromination of compound 2): same product profile as the wild-type MalA |
| B3 | – | very low activity | – |
| B4 | C9-selective | – | – |
| B5 | C9-selective | – | – |
| B6 | C8-selective | – | – |
| B7 | – | inactive | – |
| B8 | – | significantly decreased | – |
